Test [1] deals with T1, native CD30 expressed on cells (L540 Hodgkin's lymphoma cell line) (human, UniProt P28908 19-595).
T1 construct: whole, on cells; also called CD30 on L540 cells; CD30-expressing L540 cells
T1 sequence (looked up): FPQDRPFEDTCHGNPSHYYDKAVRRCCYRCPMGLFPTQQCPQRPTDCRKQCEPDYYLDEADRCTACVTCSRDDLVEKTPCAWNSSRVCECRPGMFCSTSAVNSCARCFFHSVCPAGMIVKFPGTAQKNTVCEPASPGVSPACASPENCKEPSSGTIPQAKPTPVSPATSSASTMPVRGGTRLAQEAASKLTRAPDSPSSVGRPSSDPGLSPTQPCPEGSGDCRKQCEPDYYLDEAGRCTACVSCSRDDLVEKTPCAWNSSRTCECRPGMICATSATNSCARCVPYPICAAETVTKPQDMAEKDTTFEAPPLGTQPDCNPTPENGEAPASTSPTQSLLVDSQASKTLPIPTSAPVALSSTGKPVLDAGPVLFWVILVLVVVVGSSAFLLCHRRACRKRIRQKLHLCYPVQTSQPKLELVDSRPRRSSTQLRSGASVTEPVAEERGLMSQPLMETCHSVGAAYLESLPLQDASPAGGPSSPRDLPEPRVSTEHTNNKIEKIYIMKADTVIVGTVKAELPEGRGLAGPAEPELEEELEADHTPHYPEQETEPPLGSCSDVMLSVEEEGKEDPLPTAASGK
Description: flow cytometry on L540 cells at 4 °C, detection with FITC-labeled goat anti-human IgG Fc, mean fluorescence intensity. The protocol:
Antibodies were tested for binding to L540, a Hodgkin's lymphoma cell line that expresses high-levels of CD30. […] After 1 hour, the cells were washed with PBS and the bound antibodies were detected by incubating the cells with a FITC labeled goat anti-human IgG Fc-specific probe, at 4° C. The excess probe was washed from the cells with PBS and the cell associated fluorescence was determined by analysis using a FACScalibur instrument.

In test [2] the target is T2, recombinant CD30 (supernatant from transfected cells expressing recombinant CD30) (UniProt P28908 19-379, limits assumed).
T2 construct: May be the same preparation as the soluble recombinant CD30 used for immunisation or as m4
T2 sequence (looked up): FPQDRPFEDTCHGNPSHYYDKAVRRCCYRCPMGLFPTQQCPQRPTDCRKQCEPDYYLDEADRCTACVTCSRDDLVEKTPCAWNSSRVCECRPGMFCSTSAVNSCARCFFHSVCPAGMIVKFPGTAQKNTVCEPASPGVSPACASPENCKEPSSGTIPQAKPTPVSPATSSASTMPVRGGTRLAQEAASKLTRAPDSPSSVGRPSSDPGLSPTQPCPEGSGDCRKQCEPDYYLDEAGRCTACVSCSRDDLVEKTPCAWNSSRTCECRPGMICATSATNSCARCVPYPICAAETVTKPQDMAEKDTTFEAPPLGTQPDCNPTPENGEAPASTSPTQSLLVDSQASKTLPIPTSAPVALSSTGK
Description: capture ELISA: recombinant CD30 captured on BerH2-coated wells, detection with AP-labeled goat anti-human IgG Fc, OD405. The protocol: Microtiter wells were coated with BerH2. After blocking the wells with 5% BSA solution, supernatant from transfected cells expressing recombinant CD30 was allowed to react with BER-H2 coated wells. […] After 1 hour, the wells were washed with PBS-tween and the bound antibodies were detected by incubating the cells with an alkaline-phosphatase-labeled goat anti-human IgG Fc-specific probe, at 37° C. The excess probe was washed from the wells and the plate was developed with pNPP developer. The optical density at 405 nm was determined using a microtiter plate reader.
Background: In an ELISA, binding on a coated surface is turned into a signal by an enzyme label.

The target in test [3] is T3, Human CD30 antigen (Medarex, Inc.) (human) (UniProt P28908).
T3 sequence (looked up): T2 sequence (looked up)
Briefly: SPR (Biacore 3000), 5F11 captured on protein A, CD30 as analyte, 1:1 Langmuir fit, experiment 2.

In test [4] the target is T3, Human CD30 antigen (Medarex, Inc.) (human). Briefly: SPR (Biacore 3000), 5F11 captured on protein A, CD30 as analyte, 1:1 Langmuir fit, experiment 1.
In test [5] the target is native CD30 expressed on cells (L540 Hodgkin's lymphoma cell line) (human) (UniProt P28908). Briefly: cell-based or functional assay.
Test [6] shares this target. Description: flow cytometry on L540 cells.
Test [7] addresses T4, recombinant CD30 (supernatant from transfected cells expressing recombinant CD30) (UniProt P28908).
T4 sequence (looked up): T2 sequence (looked up)
Description: capture ELISA: recombinant CD30 captured on BerH2-coated wells, detection with AP-labeled goat anti-human IgG Fc, OD405.

The target of test [8] is native CD30 expressed on cells (L540 Hodgkin's lymphoma cell line) (human) (UniProt P28908). Description: flow cytometry on L540 cells at 4 °C, detection with FITC-labeled goat anti-human IgG Fc, mean fluorescence intensity.

Where “and” joins values, the source holds several entries; their conditions need not be identical. Equal values may be shown once.

B1: human monoclonal antibody (HuMab) 2H9 (antibody, V domains shown)
VH: QVQLQQWGAGLLKPSETLSLTCAVYGGSFSGYYWSWIRQPPGKGLEWIGEINHSGSTKYTPSLKSRVTISVDTSKHQFSLKLSSVTAADTAVYYCARETVYYFDLWGRGTLVTVSS
VL: EIVLTQSPATLSLSPGERATLSCRASQSVSSNLAWYQQKPGQAPRLLIYDASNRATGIPARLSGSGSGTDFTLTISSLEPEDFAVYYCQQRSNWPWTFGQGTKVEIK
For B1, the concentration for a half-maximal effect (EC50 (read off the curve)) was around 0.1 µg/mL in test [1] and around 0.03 µg/mL in test [2].

B2: human monoclonal antibody (HuMab) 5F11 (antibody, V domains shown)
VH: QVQLQQWGAGLLKPSETLSLTCAVYGGSFSAYYWSWIRQPPGKGLEWIGDINHGGGTNYNPSLKSRVTISVDTSKNQFSLKLNSVTAADTAVYYCASLTAYWGQGSLVTVSS
VL: DIQMTQSPTSLSASVGDRVTITCRASQGISSWLTWYQQKPEKAPKSLIYAASSLQSGVPSRFSGSGSGTDFTLTISSLQPEDFATYYCQQYDSYPITFGQGTRLEIK
Regarding B2, the Kd is 1.14 nM and 1.12 nM in test [3]; 1.23 nM and 1.36 nM in test [4]. For the same molecule, the koff is 6.58e-05 s⁻¹ and 6.86e-05 s⁻¹ in test [3]; 7.47e-05 s⁻¹ and 7.03e-05 s⁻¹ in test [4]. The kon in test [3] was 57700 M⁻¹ s⁻¹ and 61300 M⁻¹ s⁻¹; in test [4], 60900 M⁻¹ s⁻¹ and 51600 M⁻¹ s⁻¹. Further, the IC50 of growth inhibition (XTT assay) of L540 and Karpas 299 cells, 5F11 cross-linked by goat-anti-human IgG in test [5] is 10 µg/mL. Besides, the concentration at saturation in test [6] was below 1 µg/mL. Also, the EC50 (read off the curve) in test [7] was 0.04 µg/mL; in test [8], 0.05 µg/mL.

By EC50 (read off the curve) is commonly meant the concentration needed to bring the measured effect to its halfway point. A word on the Kd: it is the constant that tells how readily two partners part at equilibrium. A high value points to lower affinity. What is called koff is a measure of how fast the partners let go of each other. Broadly, the kon is the second-order rate constant of association. Lower therefore signals slow association.

These data come from patent US20040006215A1 (Bristol-Myers Squibb, published 2004).
